From patent US20050164166A1 (US Dept. of Health and Human Services, published 2005)

B1: soluble scFv m6 (scFv, not shown: small tags and cut ends)
scFv: VLTQSPGTLSLSAGERATLSCRASQSVSSGSLAWYQQKPGQAPRLLIYGASTRATGIPDRFSGSGSGTDFTLTIGRLEPEDLAVYYCQQYGTSPYTFGQGTKLEIKRTGGGGSSGGASGGGGSVRLLEQSGAEVKKPGSSVQVSCKASGGTFSMYGVNWVRQAPGHGLEWMGGIIPIFGTSNYAQKFRGRVTFTADQATSTAYMELTNLRSDDTAVYYCARDFGPDWEDGDSYDGSGRGFFDFWGQGTLVTVSS
B2: Fab X5 (Fab, V domains shown)
VH: VQLLEQSGAEVKKPGSSVQVSCKASGGTFSMYGFNWVRQAPGHGLEWMGGIIPIFGTSNYAQKFRGRVTFTADQATSTAYMELTNLRSDDTAVYYCARDFGPDWEDGDSYDGSGRGFFDFWGQGTLVTVSS
VL: ELVLTQSPGTLSLSAGERATLSCRASQSVSSGSLAWYQQKPGQAPRLLIYGASTRATGIPDRFSGSGSGTDFTLTIGRLEPEDLAVYYCQQYGTSPYTFGQGTKLEIKR

Legend:
Assay in all cases: cell-based or functional assay
[1] = molecular target: Env US715.6 (clade B) (HIV-1)
[2] = molecular target: Env US005.11 (clade B) (HIV-1)
[3] = molecular target: Env 89.6 (clade B) (HIV-1, UniProt Q73372 32-853)
[4] = molecular target: Env HT593.1 (clade B) (HIV-1)
[5] = molecular target: Env NL4-3 (clade B) (HIV-1)
[6] = molecular target: Env UG037.8 (clade A) (HIV-1)
[7] = molecular target: Env UG975.10 (clade G) (HIV-1)
[8] = molecular target: Env BR019.4 (clade F/B) (HIV-1)
[9] = molecular target: Env BR025.9 (clade C) (HIV-1)
[10] = molecular target: Env TH022.4 (clade EA) (HIV-1)
[11] = molecular target: Env RW020.5 (clade A) (HIV-1)

| Binder | % of fusion inhibition (cell-cell fusion assay, syncytia count, antibody at 50 ug/ml) [1] [%] | % of fusion inhibition (cell-cell fusion assay, syncytia count, antibody at 50 ug/ml) [2] [%] | % of fusion inhibition (cell-cell fusion assay, syncytia count, antibody at 50 ug/ml) [3] [%] | % of fusion inhibition (cell-cell fusion assay, syncytia count, antibody at 50 ug/ml) [4] [%] | % of fusion inhibition (cell-cell fusion assay, syncytia count, antibody at 50 ug/ml) [5] [%] | % of fusion inhibition (cell-cell fusion assay, syncytia count, antibody at 50 ug/ml) [6] [%] | % of fusion inhibition (cell-cell fusion assay, syncytia count, antibody at 50 ug/ml) [7] [%] | % of fusion inhibition (cell-cell fusion assay, syncytia count, antibody at 50 ug/ml) [8] [%] | % of fusion inhibition (cell-cell fusion assay, syncytia count, antibody at 50 ug/ml) [9] [%] | % of fusion inhibition (cell-cell fusion assay, syncytia count, antibody at 50 ug/ml) [10] [%] | % of fusion inhibition (cell-cell fusion assay, syncytia count, antibody at 50 ug/ml) [11] [%] |
| --- | --- | --- | --- | --- | --- | --- | --- | --- | --- | --- | --- |
| B1 | 27 | 83 | 98 | 50 | 100 | 66 | 48 | 37 | 57 | 72 | 56 |
| B2 | 56 | 72 | 93 | 27 | 83 | 34 | 19 | 37 | 71 | 43 | 45 |
